Source: patent US12296018B2, “Albumin binding peptide-drug (AlBiPeD) conjugates and methods of making and using same” (priority 2018, dated 2025)
Values joined by “and” are separate entries in the source; they are usually repeats but may differ in a detail not shown here. Equal values may be shown once.

Assays:
[1] = Tissue biodistribution in C26 tumor-bearing BALB/c mice; type: in vivo
Text: The tissue concentration of Dox.

[2] = molecular target: T1, human serum albumin (HSA) (Homo sapiens, UniProt P02768); experiment: Native-PAGE mobility shift with HSA; type: binding; details: 1:1 molar ratio
T1 construct: purchased Sigma-Aldrich (St. Louis, MO)
Procedure: (§1) The gel was stained with SimplyBlue stain according to the manufacturer's instructions and imaged using the Gel Doc imaging system (Bio-Rad, Hercules, CA). Isothermal titration calorimetry was done using a standard volume Nano ITC from TA instruments (Lindon, Utah). […] The calorimetric data were analyzed by NanoAnalyze software (TA instruments, Lindon, UT) and were fit to an independent binding site model to compute the thermodynamic parameters including dissociation constant (KD), binding stoichiometry (n), enthalpy (ΔH), and entropy (ΔS).

[3] = tested on: AsPC-1 pancreatic cancer cells; experiment: In vitro cytotoxicity (MTS, 72 h) AsPC-1; type: cell-based, human; details: 72 h incubation, Dox Equiv. concentration
Procedure: (§2) In vitro cytotoxicity C26 murine colon carcinoma cells and three different pancreatic cancer cell lines, BxPC-3, AsPC-1, and MIA PaCa-2, were used to study the in vitro cytotoxicity of ABD-DOX and Dox. Cells were cultured and grown as monolayers at 37° C. with C02 in a humidified incubator and were passaged at ˜80% confluency using 0.05% trypsin-EDTA (Invitrogen, Carlsbad, CA). C26, BxPC-3, AsPC-1, and MIA PaCa-2 cells were seeded in 96-well plates (5,000 cells/well) and incubated overnight. Three-fold serial dilutions of drug were then added to the wells in triplicate and also to control wells (media with no cells) to correct for the background Dox absorbance. After 72 h treatment, 20 μL MTS reagent was added to each well and was incubated for 3 h at 37° C., and the absorbance at 490 nm was measured using a Victor3 plate reader (Perkin Elmer, Boston, MA). Cell viability (%) was defined as the percentage of the absorbance of the drug-treated cells relative to buffer-treated cells and IC50 values were determined using logistic non-linear regression analysis with GraphPad Prism software. The IC50 was defined as the Dox Equiv. concentration of formulations resulting in 50% growth inhibition compared with a negative control, buffer-treated cells.

[4] = molecular target: T2, mouse serum albumin (MSA) (Mus musculus, UniProt P07724); experiment: Isothermal titration calorimetry of ABD-Dox with MSA; type: binding; details: ITC, 37° C., PBS
T2 construct: purchased Sigma-Aldrich (St. Louis, MO)
T2 sequence (P07724 25-608): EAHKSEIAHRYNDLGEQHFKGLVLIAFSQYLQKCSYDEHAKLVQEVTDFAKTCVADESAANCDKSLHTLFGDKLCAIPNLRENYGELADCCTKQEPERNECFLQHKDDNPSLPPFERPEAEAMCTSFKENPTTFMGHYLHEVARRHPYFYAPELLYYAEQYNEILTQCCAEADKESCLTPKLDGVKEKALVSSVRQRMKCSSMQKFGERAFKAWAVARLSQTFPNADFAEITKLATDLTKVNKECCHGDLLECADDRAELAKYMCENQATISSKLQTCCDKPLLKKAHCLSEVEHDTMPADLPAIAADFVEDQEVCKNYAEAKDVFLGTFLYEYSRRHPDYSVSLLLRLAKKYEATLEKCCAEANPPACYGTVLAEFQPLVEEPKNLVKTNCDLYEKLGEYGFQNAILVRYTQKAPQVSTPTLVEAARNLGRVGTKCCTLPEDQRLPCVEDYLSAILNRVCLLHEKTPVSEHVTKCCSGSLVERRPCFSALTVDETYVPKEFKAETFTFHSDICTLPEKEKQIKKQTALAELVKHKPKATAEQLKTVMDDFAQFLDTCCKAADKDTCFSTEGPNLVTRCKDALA
Procedure: as §1

[5] = tested on: C26 murine colon carcinoma cells; experiment: In vitro cytotoxicity (MTS, 72 h) C26; type: cell-based
Procedure: as §2

MIA PaCa-2 cells = experiment: In vitro cytotoxicity (MTS, 72 h) MIA PaCa-2; type: cell-based, human; details: 72 h incubation, Dox Equiv. concentration
Procedure: as §2

Aqueous solubility = type: physicochemical; details: pH 7.4 PBS
Procedure: To remove the ELP160 tag, the KEKE-ELP160-srt-ABD-Dox conjugate was buffer exchanged into sortase reaction buffer, and was reacted with (His)6-sortase A-ELP40 in the presence of a 50 fold molar excess of triglycine (FIG. 2A). The efficiency of the sortase reaction, defined as the percent conversion of ELP-ABD-Dox substrate to ABD-Dox, was determined by size exclusion HPLC and was calculated to be ≥85% (FIG. 3A). The ABD-Dox product was then separated from (His)6-sortase A-ELP40, the cleaved KEKE-ELP160 tag, and unreacted KEKE-ELP160-srt-ABD-Dox in the sortase reaction solution by preparative size exclusion chromatography (SEC). The number of Dox molecules conjugated per ABD (Dox/ABD molar ratio) was measured before the sortase reaction by dissolving the lyophilized KEKE-ELP160-srt-ABD-Dox conjugate in PBS and calculating the moles of KEKE-ELP160-srt-ABD-Dox and Dox gravimetrically and spectrophotometrically at 488 nm, respectively. 3-4 Dox molecules were attached to each KEKE-ELP160-srt-ABD-(CGG)8. However, following removing the ELP160 tag, the resulting ABD-Dox conjugate was too hydrophobic and insoluble in pH 7.4 PBS because of the high number of conjugated Dox molecules. […] Formulation of AlDox in acidic pH, however, is undesirable as it can trigger the premature, in vitro degradation of the hydrazone bond between Dox and EMCH, converting AlDox back to free Dox.

## ABD-Dox (GLAEAKVLANRELDKYGVSDYYKNLINNAKTVEGVKALIDEILAALPCGGCGGCGGCGG)
[1]; 2 to 72 h
  AUC in other tissues compared to free Dox: No significant difference
  AUC in the spleen, lower than free Dox: ~50%
  AUC in the tumor, fold greater than free Dox: 16 fold
[1]; 2 h
  concentration in kidneys compared to free Dox: lower concentration
  concentration in liver compared to free Dox: lower concentration
  concentration in muscle compared to free Dox: lower concentration
  concentration in spleen compared to free Dox: lower concentration
[1]; 24 h
  concentration in heart compared to free Dox: higher concentration
  concentration in liver compared to free Dox: higher concentration
  concentration in lungs compared to free Dox: higher concentration
  concentration in muscle compared to free Dox: higher concentration
  concentration in spleen compared to free Dox: lower concentration
[1]; 72 h
  accumulation in kidneys compared to free Dox: higher
  accumulation in liver compared to free Dox: higher
  accumulation in lungs compared to free Dox: higher
  accumulation in muscle compared to free Dox: higher
  tumor accumulation, fold greater than free Dox: ~120 fold
[2]
  binding to HSA by mobility shift: confirmed binding
[3]
  IC50: 15.2 µM
[4]
  ΔH: -4.45 kcal/mol
  ΔS: 76.6 Jmol^−1K^−1
[4]; independent binding site model
  n (binding stoichiometry): 0.94 and 0.9
[5]; 72 h incubation, Dox Equiv. concentration
  IC50: 6.4 µM and 6.43 µM
[5]; C26 and MIA PaCa-2 cells
  in vitro cytotoxicity, fold lower than free Dox: 10-30 fold
MIA PaCa-2 cells
  IC50: 1.4 µM and 1.41 µM
Aqueous solubility
  aqueous solubility: up to 4 mg Dox Equiv.mL^−1
